The source of these data is patent US20230312686A1 (Bristol-Myers Squibb, published 2023).

Residue numbers refer to the chain shown, from its start.

In test [1] the target is T1, Recombinant human glypican-3 (aa 1-559), His-tagged, R&D Systems (human, UniProt P51654 25-559).
T1 construct: also called huGPC3; Hu GPC3-His
Briefly: SPR, Biacore T100, GPC3-His immobilised, 1:1 fit. As to the method:
(§1) The binding affinities of the alkylated GPC3 DG mutant adnectins for human and murine GPC3 were further evaluated by Biacore T100 using HBS-P+ running buffer with direct immobilization of human and mouse GPC3 proteins [Hu (Fc 2,3) and Mu (Fc 4) GPC3-His (R&D Systems)] with a 200-1.56 nM series injected for 180s association, 600s dissociation.
(In SPR one partner is held on a chip, and binding of the other changes the refractive index at the surface.)

Test [2] has as its target T2, Recombinant murine glypican-3 (aa 25-557), R&D Systems (murine, UniProt Q8CFZ4 25-557).
T2 construct: also called muGPC3; Mu GPC3-His
Description: SPR, Biacore T100, GPC3-His immobilised, 1:1 fit. As to the method: as §1

In test [3] the target is T1, Recombinant human glypican-3 (aa …). Briefly: SPR 1-point off-rate, alkylated mutant vs parent.
The target of test [4] is T2, Recombinant murine glypican-3 (aa …). Briefly: SPR 1-point off-rate, alkylated mutant vs parent.
Test [5] has as its target T3, Human glypican-3 on cells (Huh7, Hep3B, H446, Hep3B xenograft tissue) (human, UniProt P51654 25-554).
T3 construct: Endogenous GPC3 of human tumour cell lines; also called huGPC3 on cells; GPC3 receptor
Briefly: flow cytometry on Huh7 cells. As to the method:
The binding of DG variants to huGPC3 in DG GPC3 AdxDCs mutants were evaluated by flow cytometry for binding to Huh7 carcinoma cells grown in DMEM media with 10% FBS. Cells were harvested using Versene, an EDTA cell dissociation solution from Lonza, Cat. #17-711E. Tumor cells (1E5 cells/reaction) were suspended in FACS buffer (PBS, 1% BSA, 0.05% Na Azide) and mixed with a serial dilution of AdxDC for one hour on ice. Cells were washed three times with FACS buffer, and bound AdxDC was detected with an in house anti-scaffold monoclonal Ab and PE-conjugated Antibody from (RnD Systems), cat #NL007, and read on a flow cytometer.

Test [6] has as its target T4, Human glypican-3, recombinant, construct not stated (human, UniProt P51654 25-559, limits assumed, biotin in the positional scanning (site not stated)).
T4 construct: also called recombinant GPC3; human GPC3
Description: ELISA, recombinant GPC3. Background: An ELISA detects its analyte on a solid surface through an enzyme-linked reagent.

Test [7] deals with T3, Human glypican-3 on cells (Huh7, Hep3B, …). Briefly: flow cytometry on Hep3B cells, His Tag PE antibody. As to the method:
GPC3 AdxDC were evaluated by flow cytometry for binding to human Hep3B hepatocellular carcinoma cells grown in MEM with 10% FBS, and H446 small cell lung carcinoma cells grown in RPMI with 10% FBS. Cells were harvested using Cellstripper, a non-enzymatic cell dissociation solution from Mediatch (Corning: Manassas, VA 20109), Cat. #25-056-CL. Tumor cells (25,000/reaction) were suspended in FACS buffer (PBS+5% FBS+0.01% NaN₃) and mixed with a serial dilution of AdxDC for 1 hour on ice. Cells were washed three times with FACS buffer, and bound AdxDC was detected with His Tag PE-conjugated Antibody from R&D System, cat #IC050P, and read on a flow cytometer.

For test [8] the target is unchanged. Description: flow cytometry on Huh7 cells, alkylated Adnectin. On the technique in general: Flow cytometry measures light scatter and fluorescence of single cells or particles in a stream.
Test [9] shares this target. Briefly: cell-based or functional assay.
Test [10] has as its target T1, Recombinant human glypican-3 (aa …). Briefly: SPR, Biacore T100, 37 C, GPC3 immobilised, DAR1 AdxDC. The procedure:
(§2) For off-rate measurements, single 200 nM adnectin/AdxDC concentrations were injected using identical conditions. One 30s injection of 10 mM glycine pH 1.7 was used to remove bound adnectin and regenerate the GPC3 surfaces between assay cycles.
(§3) Rate constants kₐ (kₒₙ) and kd (koff) were derived from reference-subtracted sensorgrams fit to a 1:1 binding model in Biacore T100 Evaluation Software v2.0.4 (GE Healthcare). The affinity constant, KD was calculated from the ratio of rate constants kd/kₐ.

Test [11] addresses T2, Recombinant murine glypican-3 (aa …). The description is as above. The procedure: as §2, §3
Test [12] deals with T1, Recombinant human glypican-3 (aa …). Briefly: SPR, as in the previous Examples. As to the method: as §2, §3
(§4) FITC Labeling: ADX_6077_F02 and non-binding control Adnectin were reduced with DTT or TCEP followed by G25 gel filtration chromatography or dialysis. Excess Fluorescein-5-maleimide reagent (Thermo Scientific) was then added and the mixture incubated at room temperature for approximately 2 hours followed by G25 gel filtration chromatography or extensive dialysis (3-4 buffer changes). The resulting degree of labeling was measured by absorbance following the manufacturer's instructions and/or by mass spectrometry. The binding affinities of FITC-labeled and PEGylated […] for human and murine GPC3 was evaluated as described in the previous Examples, and the results are summarized in Table 13.

The target of test [13] is T2, Recombinant murine glypican-3 (aa …). Description: SPR, as in the previous Examples. The procedure:
as §2, §3, §4

T1 sequence (P51654 other isoform, or with tags, fused parts or gaps): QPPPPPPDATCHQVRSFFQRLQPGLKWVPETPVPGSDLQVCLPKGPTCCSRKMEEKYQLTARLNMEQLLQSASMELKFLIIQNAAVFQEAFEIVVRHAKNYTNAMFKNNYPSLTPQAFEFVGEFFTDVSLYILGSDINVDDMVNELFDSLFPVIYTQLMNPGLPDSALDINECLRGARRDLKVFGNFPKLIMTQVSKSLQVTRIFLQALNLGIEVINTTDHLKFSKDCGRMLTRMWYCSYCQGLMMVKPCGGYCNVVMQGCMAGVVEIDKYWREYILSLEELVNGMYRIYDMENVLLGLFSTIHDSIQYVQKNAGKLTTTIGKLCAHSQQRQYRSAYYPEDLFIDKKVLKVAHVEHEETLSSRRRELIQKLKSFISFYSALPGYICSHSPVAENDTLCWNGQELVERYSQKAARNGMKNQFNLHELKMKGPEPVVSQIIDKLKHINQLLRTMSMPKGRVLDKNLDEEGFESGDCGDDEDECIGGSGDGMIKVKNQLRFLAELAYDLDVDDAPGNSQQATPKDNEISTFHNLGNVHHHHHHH
T2 sequence (Q8CFZ4 25-557 limits assumed, form in doubt): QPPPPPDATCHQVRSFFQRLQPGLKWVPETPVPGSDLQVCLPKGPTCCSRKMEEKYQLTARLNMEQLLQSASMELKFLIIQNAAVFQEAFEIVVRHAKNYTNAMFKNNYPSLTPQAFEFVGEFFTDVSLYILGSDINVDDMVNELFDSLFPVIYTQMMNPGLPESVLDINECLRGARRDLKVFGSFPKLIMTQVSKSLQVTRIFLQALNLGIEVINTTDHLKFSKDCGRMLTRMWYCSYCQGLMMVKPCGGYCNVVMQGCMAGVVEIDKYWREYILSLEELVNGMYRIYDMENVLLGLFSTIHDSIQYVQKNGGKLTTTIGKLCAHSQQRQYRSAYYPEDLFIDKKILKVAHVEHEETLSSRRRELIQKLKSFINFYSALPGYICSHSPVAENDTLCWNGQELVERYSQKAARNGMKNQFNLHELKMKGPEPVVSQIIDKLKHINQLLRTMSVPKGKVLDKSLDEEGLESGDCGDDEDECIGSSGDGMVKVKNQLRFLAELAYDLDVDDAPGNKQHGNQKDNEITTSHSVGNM
T3 sequence (P51654 25-554 limits assumed): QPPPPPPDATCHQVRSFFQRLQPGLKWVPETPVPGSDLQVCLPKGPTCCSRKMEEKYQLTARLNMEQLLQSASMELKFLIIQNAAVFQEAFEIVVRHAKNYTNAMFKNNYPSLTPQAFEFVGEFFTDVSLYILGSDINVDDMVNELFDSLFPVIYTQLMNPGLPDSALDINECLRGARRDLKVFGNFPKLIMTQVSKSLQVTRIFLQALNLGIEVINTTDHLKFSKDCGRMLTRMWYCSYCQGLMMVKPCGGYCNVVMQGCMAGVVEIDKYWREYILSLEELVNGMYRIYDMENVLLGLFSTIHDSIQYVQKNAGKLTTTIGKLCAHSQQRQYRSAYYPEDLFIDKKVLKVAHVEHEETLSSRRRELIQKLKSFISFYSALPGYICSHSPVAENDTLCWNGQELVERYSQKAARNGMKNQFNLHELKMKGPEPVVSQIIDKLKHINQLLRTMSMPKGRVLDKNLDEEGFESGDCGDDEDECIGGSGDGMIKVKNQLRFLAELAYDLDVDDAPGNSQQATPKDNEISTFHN
T4 sequence (P51654 25-559 limits assumed): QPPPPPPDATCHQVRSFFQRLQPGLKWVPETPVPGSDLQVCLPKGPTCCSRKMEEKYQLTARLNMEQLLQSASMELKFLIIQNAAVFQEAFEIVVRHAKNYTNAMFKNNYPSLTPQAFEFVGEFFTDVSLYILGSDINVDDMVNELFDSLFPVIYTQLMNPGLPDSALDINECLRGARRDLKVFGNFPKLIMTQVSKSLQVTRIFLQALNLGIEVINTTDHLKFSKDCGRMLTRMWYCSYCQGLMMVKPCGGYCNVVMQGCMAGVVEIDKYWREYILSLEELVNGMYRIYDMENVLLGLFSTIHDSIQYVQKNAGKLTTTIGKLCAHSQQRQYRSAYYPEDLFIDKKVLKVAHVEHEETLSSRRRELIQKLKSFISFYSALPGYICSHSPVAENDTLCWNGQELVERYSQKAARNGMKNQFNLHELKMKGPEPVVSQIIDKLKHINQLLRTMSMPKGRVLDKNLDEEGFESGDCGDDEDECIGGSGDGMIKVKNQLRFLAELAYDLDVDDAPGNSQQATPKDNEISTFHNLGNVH

B1: ADX_6077_F02 DG→SG mutant, alkylated (designed binder)
chain: VSDVPRDLEVVAATPTSLLISWSDDYHAHRYYRITYGETGGNSPVQEFTVPGEHVTATISGLKPGVDYTITVYAVTYSGEKAATDWSISINYRTPC
modifications: C-terminal cysteine alkylated
notes: also called P1-055668
In general, Kd refers to the free concentration of one partner at which half of the binding sites on the other are occupied at equilibrium, for simple one-to-one binding. For orientation: koff means a measure of how fast the partners let go of each other. As a reminder, the kon is a measure of how fast the partners come together. In the case of B1, in test [1], the “Fold affinity (KD) difference vs alkylated parent” value (“Fold affinity (KD) difference” below) stood at 4.2 fold, the Kd was found to be 23.5 nM, the koff was 0.00221 s⁻¹ and the kon is 94000 M⁻¹ s⁻¹. Also, in test [2], the “Fold affinity (KD) difference” value worked out at 4.1 fold, the Kd came to 16 nM, the koff came to 0.002 s⁻¹ and the kon is 130000 M⁻¹ s⁻¹. Besides, in test [3], the “huGPC3 koff (mut/par)” value amounted to 5.2 fold. Also, the “muGPC3 koff (mut/par)” value in test [4] worked out at 4.8 fold. Moreover, the “huGPC3 on cells EC50 (mutant/parent)” value in [5] is 1.1 fold.

B2: ADX_6077_F02 DG→DA mutant, alkylated (designed binder)
chain: GVSDVPRDLEVVAATPTSLLISWSDDYHAHRYYRITYGETGGNSPVQEFTVPGEHVTATISGLKPGVDYTITVYAVTYDAEKAATDWSISINYRTPC
modifications: C-terminal cysteine alkylated
notes: also called P1-055660; PI-055660
Regarding B2, in [1], the “Fold affinity (KD) difference” value is 4.5 fold, the dissociation constant (Kd) is 25.4 nM, the koff is 0.00183 s⁻¹ and the kon amounted to 72200 M⁻¹ s⁻¹. Besides, in test [2], the “Fold affinity (KD) difference” value stood at 4.3 fold, the Kd stood at 16 nM, the koff was determined as 0.0017 s⁻¹ and the kon was found to be 100000 M⁻¹ s⁻¹. In addition, the “huGPC3 koff (mut/par)” value in test [3] was determined as 3.9 fold. Moreover, in test [4], the “muGPC3 koff (mut/par)” value is 3.7 fold. In addition, the “huGPC3 on cells EC50 (mutant/parent)” value in test [5] worked out at 1.3 fold.

B3: ADX_6077_F02 DG→DL mutant, alkylated (designed binder)
chain: B2 chain with A80L
modifications: C-terminal cysteine alkylated
notes: also called P1-055671
As for B3, in test [1], the “Fold affinity (KD) difference” value came out at 3.9 fold, the Kd came to 21.9 nM, the koff worked out at 0.00159 s⁻¹ and the kon was 72600 M⁻¹ s⁻¹. Further, in test [2], the “Fold affinity (KD) difference” value was found to be 3.8 fold, the Kd came out at 15 nM, the koff came out at 0.0015 s⁻¹ and the kon was 100000 M⁻¹ s⁻¹. The “huGPC3 koff (mut/par)” value in test [3] stood at 3.6 fold. In addition, the “muGPC3 koff (mut/par)” value in test [4] turned out to be 3.1 fold. For the same molecule, the “huGPC3 on cells EC50 (mutant/parent)” value in test [5] amounted to 1.7 fold.

B4: ADX_6077_F02 DG→DS mutant, alkylated (designed binder)
chain: B2 chain with A80S
modifications: C-terminal cysteine alkylated
notes: also called P1-055667
On to B4, for which, in test [1], the “Fold affinity (KD) difference” value was 4.2 fold, the Kd amounted to 23.3 nM, the koff was 0.00166 s⁻¹ and the association rate constant (kon) is 71600 M⁻¹ s⁻¹. Moreover, in [2], the “Fold affinity (KD) difference” value was found to be 3.9 fold, the Kd turned out to be 15 nM, the koff was 0.0015 s⁻¹ and the kon is 100000 M⁻¹ s⁻¹. Also, the “huGPC3 koff (mut/par)” value in [3] turned out to be 3.5 fold. Further, the “muGPC3 koff (mut/par)” value in test [4] stood at 3.3 fold. Also, in test [5], the “huGPC3 on cells EC50 (mutant/parent)” value is 1.4 fold.

B5: ADX_6077_F02 DG→AG mutant, alkylated (designed binder)
chain: B2 chain with D79A, A80G
modifications: C-terminal cysteine alkylated
notes: also called P1-055669
On to B5, for which, in test [1], the “Fold affinity (KD) difference” value came to 4.2 fold, the Kd is 23.7 nM, the koff turned out to be 0.00243 s⁻¹ and the kon came to 103000 M⁻¹ s⁻¹. Besides, in test [2], the “Fold affinity (KD) difference” value came out at 4 fold, the Kd worked out at 15 nM, the koff is 0.0021 s⁻¹ and the on-rate (kon) came out at 140000 M⁻¹ s⁻¹. The “huGPC3 koff (mut/par)” value in [3] is 5.9 fold. The “muGPC3 koff (mut/par)” value in test [4] amounted to 5.5 fold. Besides, the “huGPC3 on cells EC50 (mutant/parent)” value in [5] was determined as 1.1 fold.

B6: ADX_6077_F02 DG→EG mutant, alkylated (designed binder)
chain: B2 chain with D79E, A80G
modifications: C-terminal cysteine alkylated
notes: also called P1-055673
B6: in [1], the “Fold affinity (KD) difference” value came out at 5.3 fold, the dissociation constant (Kd) came to 30 nM, the koff was determined as 0.00229 s⁻¹ and the kon was determined as 76300 M⁻¹ s⁻¹. In [2], the “Fold affinity (KD) difference” value was 5.1 fold, the Kd was 19 nM, the koff came to 0.0021 s⁻¹ and the on-rate constant (kon) is 110000 M⁻¹ s⁻¹. The “huGPC3 koff (mut/par)” value in test [3] was 5.4 fold. For the same molecule, the “muGPC3 koff (mut/par)” value in test [4] is 5.1 fold. In addition, the “huGPC3 on cells EC50 (mutant/parent)” value in test [5] was 1.6 fold.

B7: ADX_5274_E01 (designed binder)
chain: MGVSDVPRDLEVVAATPTSLLISWSGDYHPHRYYRITYGETGGNSPVQEFTVPGEHETATISGLKPGVDYTITVYAVTYDGEKADKYPPISINYRTEIDKPSQ
With B7, the “ELISA OD” value in [6] is 2.37 OD.

B8: ADX_6093_A01-961(DAR2) (designed binder)
10Fn3 domain: MGVSDVPRDLEVVAATPTSLLISWDAPAVTVRYYRITYGETGGNSPVQEFTVPGSKSTATISGLKPGVDYTITVYAVTGRGESPASSKPISINYRTPCPPPPPCHHHHHH
modifications: the two C-terminal cysteines each carry the tubulysin analog-linker of formula (IV) (Drug/linker (2x), DAR2)
notes: It is the DAR2 counterpart of m12
Take B8: in test [7], the binding result was “no binding (tested: about 30 nM)”.

B9: ADX_6093_A01 alkylated (non-binding control) (designed binder)
chain: MGVSDVPRDLEVVAATPTSLLISWDAPAVTVRYYRITYGETGGNSPVQEFTVPGSKSTATISGLKPGVDYTITVYAVTGRGESPASSKPISINYRTPCHHHHHH
modifications: C-terminal cysteine alkylated with iodoacetamide
The term EC50 denotes the concentration giving half of the maximal effect. High values mean weaker potency, low ones greater potency. As to B9, in test [8], the EC50 was above 200 nM.

B10: ADX_6077_F02 DAR1 AdxDC (GPC3-tubulysin Adnectin drug conjugate) (designed binder)
chain: MGVSDVPRDLEVVAATPTSLLISWSDDYHAHRYYRITYGETGGNSPVQEFTVPGEHVTATISGLKPGVDYTITVYAVTYDGEKAATDWSISINYRTPCHHHHHH
modifications: tubulysin analog-linker (formula IV) conjugated through its maleimide to the C-terminal cysteine (DAR1)
notes: also called GPC3 AdxDC DAR1; ADX_6077_F02-961
Take B10: the “AdxDC cell-killing IC50” value in [9] was found to be 0.2 nM. In addition, in test [10], the Kd was 12 nM and the koff is 0.00098 s⁻¹. In test [11], the Kd was determined as 11 nM and the koff was 0.00077 s⁻¹.

B11: ADX_6077_F02 alkylated (designed binder)
chain: B10 chain
modifications: C-terminal cysteine (of PC) alkylated with iodoacetamide
notes: also called alkylated (capped) Adnectin; alkylated parent
B11: in test [1], the “Fold affinity (KD) difference” value is 1 fold, the Kd came to 5.6 nM, the koff is 0.000534 s⁻¹ and the kon turned out to be 95300 M⁻¹ s⁻¹. In test [2], the “Fold affinity (KD) difference” value is 1 fold, the Kd is 3.8 nM, the koff stood at 0.00049 s⁻¹ and the kon turned out to be 130000 M⁻¹ s⁻¹. In test [8], this molecule displayed an EC50 of 5 nM. In addition, in test [12], the Kd was 5.88 nM, the koff is 0.000524 s⁻¹ and the kon is 89000 M⁻¹ s⁻¹. In [13], the Kd stood at 3.69 nM, the koff was 0.000453 s⁻¹ and the kon worked out at 123000 M⁻¹ s⁻¹.
